The record followed here is patent publication US20160024487.

The target in series [1] is T1, Lys(Dnp)-ATNATMHPRIVGG-Lys(Abz).
T1 chain: KATNATMHPRIVGGK

The target of series [2] is T2, Lys(Dnp)-ATNATAIPRIVGG-Lys(Abz).
T2 chain: KATNATAIPRIVGGK

In series [3] the target is T3, Lys(Dnp)-ATNATFVPRIVGG-Lys(Abz).
T3 chain: KATNATFVPRIVGGK

For series [4], the target named is T4, Lys(Dnp)-ATNATYSPRIVGG-Lys(Abz).
T4 chain: KATNATYSPRIVGGK

Series [5] has as its target T5, Lys(Dnp)-ATNATYQPRIVGG-Lys(Abz).
T5 chain: KATNATYQPRIVGGK

Series [6] addresses T6, Lys(Dnp)-ATNATMTPRIVGG-Lys(Abz).
T6 chain: KATNATMTPRIVGGK

The target of series [7] is T7, Lys(Dnp)-ATNATLQPRIVGG-Lys(Abz).
T7 chain: KATNATLQPRIVGGK

In series [8] the target is T8, Lys(Dnp)-ATNATWTPRIVGG-Lys(Abz).
T8 chain: KATNATWTPRIVGGK

For series [9], the target named is T9, Lys(Dnp)-ATNATMQPRIVGG-Lys(Abz).
T9 chain: KATNATMQPRIVGGK

Series [10] has as its target T10, Lys(Dnp)-ATNATPQPRIVGG-Lys(Abz).
T10 chain: KATNATPQPRIVGGK

In series [11] the target is T11, Lys(Dnp)-ATNATIKPRIVGG-Lys(Abz).
T11 chain: KATNATIKPRIVGGK

Series [12] has as its target T12, Lys(Dnp)-ATNATMRPRIVGG-Lys(Abz).
T12 chain: KATNATMRPRIVGGK

The target of series [13] is T13, Lys(Dnp)-ATNATFWPRIVGG-Lys(Abz).
T13 chain: KATNATFWPRIVGGK

Series [14] concerns the target T14, Lys(Dnp)-ATNATFFPRIVGG-Lys(Abz).
T14 chain: KATNATFFPRIVGGK

Series [15] concerns the target T15, Lys(Dnp)-ATNATLVPRIVGG-Lys(Abz).
T15 chain: KATNATLVPRIVGGK

Series [16] addresses T16, Lys(Dnp)-ATNATIIPRIVGG-Lys(Abz).
T16 chain: KATNATIIPRIVGGK

Series [17] concerns the target T17, Lys(Dnp)-ATNATVVPRIVGG-Lys(Abz).
T17 chain: KATNATVVPRIVGGK

Series [18] has as its target T18, Lys(Dnp)-ATNATLTPRIVGG-Lys(Abz).
T18 chain: KATNATLTPRIVGGK

Series [19] has as its target T19, Lys(Dnp)-ATNATIHPRIVGG-Lys(Abz).
T19 chain: KATNATIHPRIVGGK

The target in series [20] is T20, Lys(Dnp)-ATNATMMPRIVGG-Lys(Abz).
T20 chain: KATNATMMPRIVGGK

For series [21], the target named is T21, Lys(Dnp)-ATNATRTPRIVGG-Lys(Abz).
T21 chain: KATNATRTPRIVGGK

Series [22] has as its target T22, Lys(Dnp)-ATNATAMPRIVGG-Lys(Abz).
T22 chain: KATNATAMPRIVGGK

The target in series [23] is T23, Lys(Dnp)-ATNATNWPRIVGG-Lys(Abz).
T23 chain: KATNATNWPRIVGGK

Series [24] addresses T24, Lys(Dnp)-ATNATGNPRIVGG-Lys(Abz).
T24 chain: KATNATGNPRIVGGK

Series [25] concerns the target T25, Lys(Dnp)-ATNATMAPRIVGG-Lys(Abz).
T25 chain: KATNATMAPRIVGGK

Series [26] deals with T26, Lys(Dnp)-ATNATEQPRIVGG-Lys(Abz).
T26 chain: KATNATEQPRIVGGK

Series [27] concerns the target T27, Lys(Dnp)-ATNATFIPRIVGG-Lys(Abz).
T27 chain: KATNATFIPRIVGGK

Series [28] concerns the target T28, Lys(Dnp)-ATNATFPPRIVGG-Lys(Abz).
T28 chain: KATNATFPPRIVGGK

Series [29] has as its target T29, Lys(Dnp)-ATNATNIPRIVGG-Lys(Abz).
T29 chain: KATNATNIPRIVGGK

In series [30] the target is T30, Lys(Dnp)-ATNATREPRIVGG-Lys(Abz).
T30 chain: KATNATREPRIVGGK

Series [31] has as its target T31, Lys(Dnp)-ATNATKTPRIVGG-Lys(Abz).
T31 chain: KATNATKTPRIVGGK

In series [32] the target is T32, Lys(Dnp)-ATNATKIPRIVGG-Lys(Abz).
T32 chain: KATNATKIPRIVGGK

Series [33] concerns the target T33, Lys(Dnp)-ATNATWWPRIVGG-Lys(Abz).
T33 chain: KATNATWWPRIVGGK

The target of series [34] is T34, Lys(Dnp)-ATNATWDPRIVGG-Lys(Abz).
T34 chain: KATNATWDPRIVGGK

Series [35] concerns the target T35, Lys(Dnp)-ATNATASPRIVGG-Lys(Abz).
T35 chain: KATNATASPRIVGGK

Series [36] deals with T36, Lys(Dnp)-ATNATRHPRIVGG-Lys(Abz).
T36 chain: KATNATRHPRIVGGK

Series [37] concerns the target T37, Lys(Dnp)-ATNATIEPRIVGG-Lys(Abz).
T37 chain: KATNATIEPRIVGGK

For series [38], the target named is T38, Lys(Dnp)-ATNATRSPRIVGG-Lys(Abz).
T38 chain: KATNATRSPRIVGGK

The target of series [39] is T39, Lys(Dnp)-ATNATKHPRIVGG-Lys(Abz).
T39 chain: KATNATKHPRIVGGK

The target in series [40] is T40, Lys(Dnp)-ATNATTWPRIVGG-Lys(Abz).
T40 chain: KATNATTWPRIVGGK

The target in series [41] is T41, Lys(Dnp)-ATNATPRPRIVGG-Lys(Abz).
T41 chain: KATNATPRPRIVGGK

B1: Human plasma purified Factor Xa (protein)
chain 1: ANSFLEEMKKGHLERECMEETCSYEEAREVFEDSDKTNEFWNKYKDGDQCETSPCQNQGKCKDGLGEYTCTCLEGFEGKNCELFTRKLCSLDNGDCDQFCHEEQNSVVCSCARGYTLADNGKACIPTGPYPCGKQTLER
chain 2: IVGGQECKDGECPWQALLINEENEGFCGGTILSEFYILTAAHCLYQAKRFKVRVGDRNTEQEEGGEAVHEVEVVIKHNRFTKETYDFDIAVLRLKTPITFRMNVAPACLPERDWAESTLMTQKTGIVSGFGRTHEKGRQSTRLKMLEVPYVDRNSCKLSSSFIITQNMFCAGYDTKQEDACQGDSGGPHVTRFKDTYFVTGIVSWGEGCARKGKYGIYTKVTAFLKWIDRSMKTRGLPKAKSHAPEVITSSPLK
In the case of B1, the FXa kcat/KM in series [1] amounted to 290 M⁻¹ s⁻¹; in series [2], 220 M⁻¹ s⁻¹; in [3] it was 71 M⁻¹ s⁻¹; in [4] it was 41 M⁻¹ s⁻¹; in [5] it was 60 M⁻¹ s⁻¹; in series [6], 97 M⁻¹ s⁻¹. For the same protein, the FXa kcat/KM in [7] came to 1200 M⁻¹ s⁻¹; in [8], 46 M⁻¹ s⁻¹; in series [9] it was 950 M⁻¹ s⁻¹; in series [10], 1100 M⁻¹ s⁻¹; in series [11] it was 120 M⁻¹ s⁻¹; in series [12] it was 490 M⁻¹ s⁻¹. The FXa kcat/KM in series [13] was found to be 370 M⁻¹ s⁻¹; in series [14] it was 48 M⁻¹ s⁻¹; in series [15], 360 M⁻¹ s⁻¹; in series [16], 490 M⁻¹ s⁻¹; in series [17] it was 54 M⁻¹ s⁻¹; in [18], 540 M⁻¹ s⁻¹. The values for the FXa kcat/KM in [19] and in [20] were 810 M⁻¹ s⁻¹ and 1000 M⁻¹ s⁻¹, respectively.

B2: Human plasma purified Factor Xa (Molecular Innovations, Inc) (protein)
chain 1: B1 chain 1
chain 2: B1 chain 2
Consider B2, for which the FXa kcat/KM turned out to be 1500 M⁻¹ s⁻¹ in series [21]; 460 M⁻¹ s⁻¹ in series [22]; 86 M⁻¹ s⁻¹ in [23]; 52 M⁻¹ s⁻¹ in series [24]; 360 M⁻¹ s⁻¹ in series [25]; 11 M⁻¹ s⁻¹ in series [26]. The FXa kcat/KM in series [27] came to 150 M⁻¹ s⁻¹; in series [28], 6.2 M⁻¹ s⁻¹; in [29], 38 M⁻¹ s⁻¹; in series [30], 2400 M⁻¹ s⁻¹; in [31], 72 M⁻¹ s⁻¹; in series [32] it was 62 M⁻¹ s⁻¹. Also, the FXa kcat/KM in series [33] was 70 M⁻¹ s⁻¹; in series [34], 16 M⁻¹ s⁻¹; in series [35], 310 M⁻¹ s⁻¹; in series [36], 2600 M⁻¹ s⁻¹; in series [37], 1300 M⁻¹ s⁻¹; in [38] it was 2700 M⁻¹ s⁻¹. The results for the FXa kcat/KM in [39], in series [40] and in series [41] were 56 M⁻¹ s⁻¹, 21 M⁻¹ s⁻¹ and 500 M⁻¹ s⁻¹, respectively.
